Assay results taken from patent US20150010589A1 (published 2015).

B1: recombinant Aegyptin (mature protein with C-terminal 6xHis tag, expressed in 293-F cells) (other)
chain: RPMPEDEEPVAEGGDDDASGESEGEEETTDDAGGDGGEEENEGEEHAGDKDAGGEDTGKEENTGHDDAGEEDAGEEDAGEEDAGEEDAGEEDAEKEEGEKEDAGDDAGSDDGEEDSTGGDEGEDNAEDSKGSEKNDPADTYRQVVALLDKDTKVDHIQSEYLRSALNNDLQSEVRVPVVEAIGRIGDYSKIQGCFKSMGKDVKKVISEEEKKFKSCMSKKKSEYQCSEDSFAAAKSKLSPITSKIKSCVSSKGRHHHHHH

Assays:
[1] = target: T1, heat-denatured soluble collagen type I (90 min at 98° C.) (human, UniProt P02452 179-1192; P08123 91-1104); assay: SPR, Aegyptin over immobilized heat-denatured collagen I, two-state model; Ka1
T1 construct: domain: pepsin-digested, soluble non-fibrillar collagen, heat-denatured; Same material as soluble collagen I, denatured in a thermocycler before immobilization; also called Collagen denatured; heat-denatured collagen
T1 sequence (P02452 179-1192 limits assumed, chain 1 of 2): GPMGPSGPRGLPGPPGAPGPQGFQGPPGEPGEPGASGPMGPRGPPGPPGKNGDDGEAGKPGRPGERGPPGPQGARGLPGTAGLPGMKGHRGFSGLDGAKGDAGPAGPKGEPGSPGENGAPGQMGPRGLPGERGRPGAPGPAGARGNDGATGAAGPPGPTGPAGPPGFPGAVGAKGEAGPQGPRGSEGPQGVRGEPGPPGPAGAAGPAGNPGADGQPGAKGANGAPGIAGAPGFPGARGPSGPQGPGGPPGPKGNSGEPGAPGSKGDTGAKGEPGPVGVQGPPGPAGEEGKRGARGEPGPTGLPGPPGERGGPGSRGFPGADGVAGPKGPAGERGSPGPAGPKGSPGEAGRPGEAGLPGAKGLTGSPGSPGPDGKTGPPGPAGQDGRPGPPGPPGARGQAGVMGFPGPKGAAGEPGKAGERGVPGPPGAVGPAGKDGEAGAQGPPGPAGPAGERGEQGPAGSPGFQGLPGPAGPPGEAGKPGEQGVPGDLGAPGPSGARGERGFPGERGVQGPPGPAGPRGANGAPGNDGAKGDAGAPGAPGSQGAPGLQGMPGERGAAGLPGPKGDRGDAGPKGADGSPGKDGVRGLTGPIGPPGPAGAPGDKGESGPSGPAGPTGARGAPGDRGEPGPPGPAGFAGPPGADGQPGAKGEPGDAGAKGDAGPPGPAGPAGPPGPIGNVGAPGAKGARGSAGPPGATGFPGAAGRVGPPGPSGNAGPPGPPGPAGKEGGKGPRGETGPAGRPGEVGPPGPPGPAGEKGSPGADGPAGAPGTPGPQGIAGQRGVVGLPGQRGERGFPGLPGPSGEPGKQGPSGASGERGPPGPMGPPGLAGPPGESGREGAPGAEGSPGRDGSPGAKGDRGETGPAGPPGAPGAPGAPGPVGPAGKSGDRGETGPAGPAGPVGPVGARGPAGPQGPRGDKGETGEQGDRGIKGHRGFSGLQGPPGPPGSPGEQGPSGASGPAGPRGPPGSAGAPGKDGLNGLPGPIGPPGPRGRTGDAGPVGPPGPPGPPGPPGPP
T1 sequence (P08123 91-1104 limits assumed, chain 2 of 2): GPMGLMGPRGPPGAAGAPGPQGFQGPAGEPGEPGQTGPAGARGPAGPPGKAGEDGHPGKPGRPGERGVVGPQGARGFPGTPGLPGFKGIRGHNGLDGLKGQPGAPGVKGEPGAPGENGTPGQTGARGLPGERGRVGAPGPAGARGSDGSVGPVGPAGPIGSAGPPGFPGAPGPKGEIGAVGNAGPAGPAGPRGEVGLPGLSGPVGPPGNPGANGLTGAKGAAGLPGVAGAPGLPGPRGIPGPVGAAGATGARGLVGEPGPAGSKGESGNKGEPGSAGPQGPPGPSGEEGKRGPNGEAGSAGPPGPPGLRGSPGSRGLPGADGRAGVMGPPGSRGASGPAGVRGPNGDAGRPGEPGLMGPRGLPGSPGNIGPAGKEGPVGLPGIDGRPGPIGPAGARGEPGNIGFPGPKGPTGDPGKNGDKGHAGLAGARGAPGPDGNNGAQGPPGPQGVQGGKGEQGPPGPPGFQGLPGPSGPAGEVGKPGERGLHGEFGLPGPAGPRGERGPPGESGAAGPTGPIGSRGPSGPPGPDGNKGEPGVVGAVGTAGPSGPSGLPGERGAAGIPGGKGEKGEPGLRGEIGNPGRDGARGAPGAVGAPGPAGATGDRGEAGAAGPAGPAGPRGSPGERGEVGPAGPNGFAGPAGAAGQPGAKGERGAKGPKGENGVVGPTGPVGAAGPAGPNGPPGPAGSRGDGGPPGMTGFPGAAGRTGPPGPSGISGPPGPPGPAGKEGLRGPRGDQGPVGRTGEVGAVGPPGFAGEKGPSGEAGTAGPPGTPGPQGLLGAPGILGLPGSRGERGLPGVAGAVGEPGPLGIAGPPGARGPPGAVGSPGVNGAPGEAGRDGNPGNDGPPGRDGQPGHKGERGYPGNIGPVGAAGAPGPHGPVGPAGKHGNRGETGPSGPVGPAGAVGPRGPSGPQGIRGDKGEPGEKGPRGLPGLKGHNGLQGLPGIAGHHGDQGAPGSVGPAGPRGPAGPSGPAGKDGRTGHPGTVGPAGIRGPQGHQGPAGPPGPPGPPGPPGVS

[2] = target: T2, soluble collagen type III (pepsin-digested, non-fibrillar; BD Biosciences) (human, UniProt P02461 168-1196); assay: SPR (Biacore T100), Aegyptin over immobilized collagen type III, 25 C, two-state reaction model; Kd1
T2 construct: domain: pepsin-digested, soluble non-fibrillar (tertiary structure, triple helical); also called collagen III
T2 sequence: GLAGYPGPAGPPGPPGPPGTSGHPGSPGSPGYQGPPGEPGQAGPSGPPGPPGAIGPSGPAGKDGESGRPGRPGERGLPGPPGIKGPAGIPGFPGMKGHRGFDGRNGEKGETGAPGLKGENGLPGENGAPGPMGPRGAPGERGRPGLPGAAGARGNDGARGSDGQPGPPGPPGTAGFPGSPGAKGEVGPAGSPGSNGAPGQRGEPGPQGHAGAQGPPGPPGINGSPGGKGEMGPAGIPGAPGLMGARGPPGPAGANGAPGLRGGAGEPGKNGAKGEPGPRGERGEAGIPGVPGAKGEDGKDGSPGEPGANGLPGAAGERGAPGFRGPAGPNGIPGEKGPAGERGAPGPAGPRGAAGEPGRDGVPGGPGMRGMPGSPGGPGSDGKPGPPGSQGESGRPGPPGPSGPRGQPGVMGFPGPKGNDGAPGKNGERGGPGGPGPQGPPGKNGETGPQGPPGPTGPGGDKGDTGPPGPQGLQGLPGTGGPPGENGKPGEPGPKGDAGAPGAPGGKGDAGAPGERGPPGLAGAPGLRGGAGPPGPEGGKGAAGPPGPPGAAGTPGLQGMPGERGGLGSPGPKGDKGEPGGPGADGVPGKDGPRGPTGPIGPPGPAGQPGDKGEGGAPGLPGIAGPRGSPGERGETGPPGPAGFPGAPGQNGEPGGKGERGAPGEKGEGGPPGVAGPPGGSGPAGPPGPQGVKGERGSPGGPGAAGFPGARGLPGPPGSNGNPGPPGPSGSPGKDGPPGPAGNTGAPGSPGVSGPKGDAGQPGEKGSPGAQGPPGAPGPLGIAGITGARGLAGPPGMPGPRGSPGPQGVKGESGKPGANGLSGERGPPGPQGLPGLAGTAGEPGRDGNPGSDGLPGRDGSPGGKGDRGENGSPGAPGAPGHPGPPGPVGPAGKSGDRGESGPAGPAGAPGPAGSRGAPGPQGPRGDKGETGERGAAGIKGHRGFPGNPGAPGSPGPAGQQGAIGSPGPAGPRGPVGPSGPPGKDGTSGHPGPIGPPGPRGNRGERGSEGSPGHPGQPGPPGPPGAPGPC

[3] = target: T3, RGQOGVMGFO peptide GPC-(GPP)5-GPOGPSGPRGQOGVMGFOGPKGNDGAO-(GPP)5-GPC-NH2, cross-linked (O residues as printed (hydroxyproline); C-terminal amide (NH2); cross-linked (4° C. for 48 hours in PBS, or SPDP)); assay: ELISA, inhibition of vWf (3 nM) binding to the coated RGQOGVMGFO peptide by Aegyptin (0.05-3 µM)
T3 construct: also called collagen type III vWf-related peptide

[4] = target: T4, soluble collagen type I (pepsin-digested, non-fibrillar, triple helical; BD Biosciences) (human, UniProt P02452 179-1192; P08123 91-1104); assay: SPR kinetics at 15-40 C on immobilized collagen type I, van't Hoff analysis; value (±SE)
T4 construct: domain: pepsin-digested, soluble non-fibrillar (tertiary structure, triple helical); also called collagen I; Coll-I
T4 sequence (P02452 179-1192 limits assumed, chain 1 of 2): as the sequence (P02452 179-1192 limits assumed, chain 1 of 2) above
T4 sequence (P08123 91-1104 limits assumed, chain 2 of 2): as the sequence (P08123 91-1104 limits assumed, chain 2 of 2) above

[5] = target: T4, soluble collagen type I …; assay: SPR (Biacore T100), Aegyptin over immobilized collagen type I, 25 C, two-state reaction model; Kd1
[6] = target: T1, heat-denatured soluble collagen type I …; assay: SPR, Aegyptin over immobilized heat-denatured collagen I, two-state model
[7] = target: T2, soluble collagen type III …; assay: SPR (Biacore T100), Aegyptin over immobilized collagen type III, 25 C, two-state reaction model; Ka1
[8] = target: T1, heat-denatured soluble collagen type I …; assay: SPR, Aegyptin over immobilized heat-denatured collagen I, two-state model; Kd1
[9] = target: T4, soluble collagen type I …; assay: SPR, Aegyptin over immobilized soluble collagen type I, 180 s at 30 µl/min, two-state model; Ka1
[10] = target: T4, soluble collagen type I …; assay: SPR, Aegyptin over immobilized soluble collagen type I, two-state model; Kd1
[11] = target: T4, soluble collagen type I …; assay: SPR (Biacore T100), Aegyptin over immobilized collagen type I, 25 C, two-state reaction model
[12] = target: T4, soluble collagen type I …; assay: SPR (Biacore T100), Aegyptin over immobilized collagen type I, 25 C, two-state reaction model; Ka1
[13] = target: T2, soluble collagen type III …; assay: SPR (Biacore T100), Aegyptin over immobilized collagen type III, 25 C, two-state reaction model
[14] = target: T4, soluble collagen type I …; assay: SPR, Aegyptin over immobilized soluble collagen type I, two-state model
[15] = target: T4, soluble collagen type I …; assay: SPR, C-terminus-2 (5-250 nM) over immobilized soluble collagen type I, two-state binding model
[16] = target: B1; assay: SPR, Aegyptin injected over immobilized GPVI

**Q.** Which kon [1] does the source give for B1 here?
**A.** 6740 M⁻¹ s⁻¹

**Q.** What about the koff [2] of the same binder?
**A.** 0.00605 s⁻¹

**Q.** What about the IC50 [3] of the same binder?
**A.** ~300 nM

**Q.** What about the “TΔS°” value [4] of the same binder?
**A.** 6.69 kcal/mol

**Q.** What about the “ΔG°” value [4] of the same binder?
**A.** -11.5 kcal/mol

**Q.** And the “ΔH°” value [4]?
**A.** -4.78 kcal/mol

**Q.** What about the “ΔS°” value [4] of the same binder?
**A.** 95 J/(K*mol)

**Q.** What about the koff [5] of the same binder?
**A.** 0.0154 s⁻¹

**Q.** What about the Kd [6] of the same binder?
**A.** 3.32 nM

**Q.** What about the kon [7] of the same binder?
**A.** 2.49e+06 M⁻¹ s⁻¹

**Q.** What about the koff [8] of the same binder?
**A.** 0.0188 s⁻¹

**Q.** What about the kon [9] of the same binder?
**A.** 3.63e+08 M⁻¹ s⁻¹

**Q.** What about the koff [10] of the same binder?
**A.** 0.0103 s⁻¹

**Q.** What about the Kd [11] of the same binder?
**A.** 1.22 nM

**Q.** And the kon [12]?
**A.** 4.24e+06 M⁻¹ s⁻¹

**Q.** What about the Kd [13] of the same binder?
**A.** 1.4 nM

**Q.** What about the Kd [14] of the same binder?
**A.** 0.98 nM

B2: Aegyptin C-terminus-2 (137 aa), truncated form without GEEDA repeats (other)
chain: GGDEGEDNAEDSKGSEKNDPADTYRQVVALLDKDTKVDHIQSEYLRSALNNDLQSEVRVPVVEAIGRIGDYSKIQGCFKSMGKDVKKVISEEEKKFKSCMSKKKSEYQCSEDSFAAAKSKLSPITSKIKSCVSSKGR
notes: also called C-terminal-2; C-terminus 2 domain
**Q.** B2 was tested. Which Kd [15] did it give?
**A.** ~60 nM

B3: recombinant GPVI (platelet glycoprotein VI) (receptor)
chain: QSGPLPKPSLQALPSSLVPLEKPVTLRCQGPPGVDLYRLEKLSSSRYQDQAVLFIPAMKRSLAGRYRCSYQNGSLWSLPSDQLELVATGVFAKPSLSAQPGPAVSSGGDVTLQCQTRYGFDQFALYKEGDPAPYKNPERWYRASFPIITVTAAHSGTYRCYSFSSRDPYLWSAPSDPLELVVTGTSVTPSRLPTEPPSPVAEFSEATAELTVSFTNEVFTTETSRSITASPKESDSPAGPARQYYTK
**Q.** Does B3 bind [16]?
**A.** no binding (tested: 500 nM)
